{"source": "patent US20220127309A1", "key": {"[1]": {"biological_target": "Ectodomain of RSV F (1-520) - DScav mutations - HIV GP160-based SSM (Respiratory Syncytial virus)", "assay": "ELISA, printed as affinity (FIG. 1C)"}, "[2]": {"biological_target": "Ectodomain of RSV F (1-513) - DScav mutations - Foldon SSM (Respiratory Syncytial virus)", "assay": "ELISA, printed as affinity (FIG. 1C)"}, "[3]": {"biological_target": "Ectodomain of RSV F (1-520) - HIV GP160-based SSM (Respiratory Syncytial virus)", "assay": "ELISA, printed as affinity (FIG. 1A)"}, "[4]": {"biological_target": "Ectodomain of RSV F (1-520) - DScav mutations - HIV GP160-based SSM (Respiratory Syncytial virus)", "assay": "ELISA, printed as affinity (FIG. 1B)"}, "[5]": {"biological_target": "Ectodomain of RSV F (1-513) - DScav mutations - Foldon SSM (Respiratory Syncytial virus)", "assay": "ELISA, printed as affinity (FIG. 1B)"}}, "data": [{"substance": "Broadly cross-neutralizing, prefusion specific monoclonal antibody MPE8", "values": [{"measurement": "Kd", "setting": "[1]", "result": 7.6, "unit": "nM"}, {"measurement": "Kd", "setting": "[2]", "result": 10.8, "unit": "nM"}]}, {"substance": "Prefusion specific monoclonal antibody D25", "values": [{"measurement": "Kd", "setting": "[3]", "result": 23.4, "unit": "nM"}, {"measurement": "Kd", "setting": "[4]", "result": 1.2, "unit": "nM"}, {"measurement": "Kd", "setting": "[5]", "result": 1.3, "unit": "nM"}]}]}
